Experiments:
[1] = tested on: HLA-DR3 (α1*01:01;β1*03:0); assay: ProImmune REVEAL MHC class II binding assay of long peptides; set-up: species or system human; conditions: percentage of the signal of the positive control peptide; positive binding score >=15%
Source text: (§1) The highly frequent HLA class II alleles HLA-DR1 (α1*01:01;β1*01:01), HLA-DR15 (α1*01:01;β1*15:01), HLA-DR3 (α1*01:01;β1*03:01), HLA-DR4 (α1*01:01;β1*04:01), HLA-DR11 (α1*01:01;β1*11:01), HLA-DR13 (α1*01:01;β1*13:01), and HLA-DR7 (α1*01:01;β1*07:01) were selected. Each peptide was given a score relative to the positive control peptide, which is a known T-cell epitope. The score of the test peptide is reported quantitatively as a percentage of the signal generated by the positive control peptide, and the peptide is indicated as having a putative pass or fail result. Good binders are considered to be those peptides with scores >=15% of the positive control as defined by Proimmune.

[2] = tested on: HLA-DR1 (α1*01:01;β1*01:01); assay: as above; set-up: species or system human; conditions: percentage of the signal of the positive control peptide; positive binding score >=15%
Source text: as §1

[3] = target: T1, HLA-DR13 (α1*01:01;β1*13:01) (Homo sapiens, UniProt P01903+P01911, A100E/A169T/K41T/L162R/M171V/P40S/Q125H/Q178H/Q39Y/Q99D/R42S/S66N/W38E/Y61H); assay: as above; conditions: percentage of the signal of the positive control peptide; positive binding score >=15%
T1 construct: purchased ProImmune
T1 sequence (P01903 26-216, other chains not shown): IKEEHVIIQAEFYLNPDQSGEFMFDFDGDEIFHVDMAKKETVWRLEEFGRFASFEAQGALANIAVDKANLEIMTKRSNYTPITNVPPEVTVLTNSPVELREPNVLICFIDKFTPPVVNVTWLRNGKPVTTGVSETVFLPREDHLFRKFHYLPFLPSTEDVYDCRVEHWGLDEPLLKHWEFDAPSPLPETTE
Source text: The highly frequent HLA class II alleles HLA-DR1 (α1*01:01;β1*01:01), HLA-DR15 (α1*01:01;β1*15:01), HLA-DR3 (α1*01:01;β1*03:01), HLA-DR4 (α1*01:01;β1*04:01), HLA-DR11 (α1*01:01;β1*11:01), HLA-DR13 (α1*01:01;β1*13:01), and HLA-DR7 (α1*01:01;β1*07:01) were selected. Each peptide was given a score relative to the positive control peptide, which is a known T-cell epitope.

[4] = target: T2, HLA-DR15 (α1*01:01;β1*15:01) (Homo sapiens, UniProt P01903+P01911); assay: as above; conditions: percentage of the signal of the positive control peptide; positive binding score >=15%
T2 construct: purchased ProImmune
Source text: as §1

[5] = target: T3, HLA-DR7 (α1*01:01;β1*07:01) (Homo sapiens, UniProt P01903+P01911, A100R/A102G/A103Q/D57E/D86V/E43K/F76Y/K127E/L162R/M171V/P40G/Q125H/Q99D/R195Q/R33Q/R42Y/R54Q/S133A/S149N/S66F/T210M/V115G/Y107V/Y59L/Y89S); assay: as above; conditions: percentage of the signal of the positive control peptide; positive binding score >=15%
T3 construct: purchased ProImmune
Source text: as §1

HLA-B*0801 = HLA-B*0801 (Homo sapiens, UniProt P01889, A93T/A95T/D138N/E176V/E187T/K202T/Q94N/R180D/S35A/V36M/Y33D/Y91F); assay: ProImmune REVEAL MHC class I binding assay of nonamers; conditions: score as % of positive control peptide
Source text: (§2) The number of HLA class I binding registers contained in each peptide may be determined by determining the ability of the peptide to bind to a range of frequently occurring HLA class I molecules. HLA class I binding may be measured using the ProImmune REVEAL® MHC-peptide Binding Assay (ProImmune Ltd, Oxford, UK). The REVEAL™ MHC peptide-binding assay measures the ability of each peptide to stabilize the ternary MHC-peptide complex for […], HLA-A*0201, HLA¬A*0301, HLA-A*2402, HLA-B*0702, HLA-B*0801, HLA-B*3501 representative of main HLA class I supertypes. Each tested peptide is given a score relative to a pass/fail control peptide and also compared to a positive control peptide.
(§3) Detection is based on the presence or absence of the native conformation of the MHC-peptide complex. The highly frequent HLA class I alleles (HLA-A*0201, A*0301, A*1101, A*2402, B*0702, B*0801, and B*3501) were selected. Binding to MHC molecules was compared to that of a known T-cell epitope, a positive control peptide, with very strong binding properties. […] The score of the test peptide is reported quantitatively as a percentage of the signal generated by the positive control peptide, and the peptide is indicated as having a putative pass or fail result. Good binders are considered to be those peptides with scores 45% of the positive control as defined by ProImmune.

HLA-A*0301 = target: T4, HLA-A*0301 (Homo sapiens, UniProt P04439); assay: as above; conditions: score as % of positive control peptide
T4 construct: purchased ProImmune
Source text: as §2, §3

HLA-A*2402 = HLA-A*2402 (Homo sapiens, UniProt P04439, D101N/D140Y/D185E/E176V/E190D/F33S/G103R/G107R/I119L/I121M/I306V/K335N/L105A/L180Q/L300P/N151K/N90K/Q86E/Q94H/R106L/R138H/R89G/T104I/T345S/V100E/W191G/Y123F); assay: as above; conditions: score as % of positive control peptide
Source text: as §2, §3

HLA-A*0201 = HLA-A*0201 (Homo sapiens, UniProt P04439, D140Y/D185E/D98H/E176V/E277Q/G131W/G231S/I119V/I121R/I166T/I218V/L300P/L318F/N151K/N90K/P208A/P217A/Q86G/Q94H/R138H/R169H/T345S); assay: as above; conditions: score as % of positive control peptide
Source text: as §2, §3

HLA-B*3501 = HLA-B*3501 (Homo sapiens, UniProt P01889, A329T/A93T/A95T/C349S/D201E/D98Y/E176V/E187L/E204Q/E69T/I218V/K202T/L119I/Q94N/R155S/R180L/S121R/S35A/S48A/T118I/V127L/V306I/V36M/Y140S/Y91F); assay: as above; conditions: score as % of positive control peptide
Source text: as §2, §3

HLA-A*1101 = target: T5, HLA-A*1101 (Homo sapiens, UniProt P04439, A114D/D185E/E176A/F33Y/L180Q/S129P/T187R); assay: as above; conditions: score as % of positive control peptide
T5 construct: purchased ProImmune
Source text: as §2, §3

HLA-B*0702 = target: T6, HLA-B*0702 (Homo sapiens, UniProt P01889); assay: as above; conditions: score as % of positive control peptide
T6 construct: purchased ProImmune
Source text: as §2, §3

Substance: NP113: unconjugated HBV long peptide, polymerase region 96-130 of virtual HBV proteome (VGPLTVNEKRRLKLIMPARFYPNVTKYLPLDKGIK; HBV CONSENSUS SEQUENCE)
- binding score, HLA-DR3 (α1*01:01;β1*03:0) [1]: 49.98%
- binding score, HLA-DR1 (α1*01:01;β1*01:01) [2]: 54.44%
- binding score, HLA-DR13 (α1*01:01;β1*13:01) [3]: 0.00%
- binding score, HLA-DR15 (α1*01:01;β1*15:01) [4]: 28.04%
- binding score, HLA-DR7 (α1*01:01;β1*07:01) [5]: 99.17%
- Number of nonamers having a binding score >= 45%, HLA-B*0801 (HLA-B*0801): 3
- Number of nonamers having a binding score >= 45%, HLA-A*0301 (HLA-A*0301): 3
- Number of nonamers having a binding score >= 45%, HLA-A*2402 (HLA-A*2402): 3
- Number of nonamers having a binding score >= 45%, HLA-A*0201 (HLA-A*0201): 2
- Number of nonamers having a binding score >= 45%, HLA-B*3501 (HLA-B*3501): 2
- Number of nonamers having a binding score >= 45%, HLA-A*1101 (HLA-A*1101): 5
- Number of nonamers having a binding score >= 45%, HLA-B*0702 (HLA-B*0702): 2

Substance: NP151: unconjugated HBV long peptide, polymerase region 134-168 (PEHVVNHYFQTRHYLHTLWKAGILYKRETTRSASF; HBV CONSENSUS SEQUENCE)
- binding score, HLA-DR3 (α1*01:01;β1*03:0) [1]: 0.00%
- binding score, HLA-DR1 (α1*01:01;β1*01:01) [2]: 14.59%
- binding score, HLA-DR13 (α1*01:01;β1*13:01) [3]: 0.00%
- binding score, HLA-DR15 (α1*01:01;β1*15:01) [4]: 38.96%
- binding score, HLA-DR7 (α1*01:01;β1*07:01) [5]: 19.41%
- Number of nonamers having a binding score >= 45%, HLA-B*0801 (HLA-B*0801): 4
- Number of nonamers having a binding score >= 45%, HLA-A*0301 (HLA-A*0301): 4
- Number of nonamers having a binding score >= 45%, HLA-A*2402 (HLA-A*2402): 4
- Number of nonamers having a binding score >= 45%, HLA-A*0201 (HLA-A*0201): 3
- Number of nonamers having a binding score >= 45%, HLA-B*3501 (HLA-B*3501): 0
- Number of nonamers having a binding score >= 45%, HLA-A*1101 (HLA-A*1101): 3
- Number of nonamers having a binding score >= 45%, HLA-B*0702 (HLA-B*0702): 3

Substance: NP753(K): unconjugated HBV long peptide, core KK + 738-770 (S to T at 743) + KKK (KKKEFGATVELLSFLPSDFFPSVRDLLDTASALYRKKK; HBV CONSENSUS SEQUENCE)
- binding score, HLA-DR3 (α1*01:01;β1*03:0) [1]: 0.00%
- binding score, HLA-DR1 (α1*01:01;β1*01:01) [2]: 0.11%
- binding score, HLA-DR13 (α1*01:01;β1*13:01) [3]: 0.00%
- binding score, HLA-DR15 (α1*01:01;β1*15:01) [4]: 0.00%
- binding score, HLA-DR7 (α1*01:01;β1*07:01) [5]: 0.00%
- Number of nonamers having a binding score >= 45%, HLA-B*0801 (HLA-B*0801): 1
- Number of nonamers having a binding score >= 45%, HLA-A*0301 (HLA-A*0301): 0
- Number of nonamers having a binding score >= 45%, HLA-A*2402 (HLA-A*2402): 3
- Number of nonamers having a binding score >= 45%, HLA-A*0201 (HLA-A*0201): 3
- Number of nonamers having a binding score >= 45%, HLA-B*3501 (HLA-B*3501): 1
- Number of nonamers having a binding score >= 45%, HLA-A*1101 (HLA-A*1101): 1
- Number of nonamers having a binding score >= 45%, HLA-B*0702 (HLA-B*0702): 1
